This experiment deals with human EGFR, C-terminal eGFP-tagged, on CHO-K1 cells (human, UniProt P00533 25-1210). Nature of the experiment: cell-based or functional assay.

B1: GOMP001_bsAb_015 (bispecific antibody, human IgG1, kappa, L234A L235A)
heavy 1: QVQLVQSGAEVKKPGASVKVSCKASGYTFTSHWMHWVRKAPGQGLEWIGEFNPSNGRTNYNEEFKSKATMTVDTSTNTAYMELSSLRSEDTAVYYCASRDYDYDGRYFDYWGQGTLVTVSSASTKGPSVFPLAPSSKSTSGGTAALGCLVADYFPEPVTVSWNSGALTSGVHTFPAVLQSSGLYSLSSVVTVPSSSLGTQTYICNVNHKPSNTKVDEKVEPKSCDKTHTCPPCPAPEAAGGPSVFLFPPKPKDTLMISRTPEVTCVVVDVSHEDPEVKFNWYVDGVEVHNAKTKPREEQYNSTYRVVSVLTVLHQDWLNGKEYKCKVSNKALPAPIEKTISKAKGQPREPQVYTLPPSREEMTDNQVSLTCLVKGFYPSDIAVEWESNGQPENNYKTTPPVLMSDGSFFLASKLTVDKSRWQQGNVFSCSVMHEALHNHYTQKSLSLSPG
light 1: RIQMTQSPSSLSASVGDRVTITCSASSSVTYMYWYQDKPGKAPKLLIYDTSNLASGVPSRFSGSGSGTDYTFTISSLQPEDIATYYCQQWSSHIFTFGQGTKVEIKRTVAAPSVFIFPPSDKQLKSGTARVVCLLNNFYPREAKVQWKVDNALQSGNSQESVTEQDSKDSTYSLSSTLTLSKADYEKHKVYACEVTHQGLSSPVTKSFNRGEC
heavy 2: QVQLVESGGGVVQPGRSLRLSCAASGFTFSGYGMHWVRYAPGKGLDWVAIIYYNGNNKYYADRVKGRFTISRDNSKNTLYLQMNSLRAEDTAVYYCARGGGYNWFDPWGRGTLVIVSSASTKGPSVFPLAPSSKSTSGGTAALGCLVKDYFPEPVTVSWNSGALTSGVHTFPAVLQSSGLYSLSSVVTVPSSSLGTQTYICNVNHKPSNTKVDKKVEPKSCDKTHTCPPCPAPEAAGGPSVFLFPPKPKDTLMISRTPEVTCVVVDVSHEDPEVKFNWYVDGVEVHNAKTKPREEQYNSTYRVVSVLTVLHQDWLNGKEYKCKVSNKALPAPIEKTISKAKGQPRRPRVYTLPPSREEMTKNQVSLVCLVKGFYPSDIAVEWESNGQPENNYKTTPPVLDSDGSFFLYSVLTVDKSRWQQGNVFSCSVMHEALHNHYTQKSLSLSPG
light 2: not shown
For the molecule B1, the “EC50 CHO-K1 EGFR Low (nM); T cell activation bioassay, luciferase” value worked out at 0.515 nM and the “EC50 CHO-K1 EGFR Med (nM); T cell activation bioassay, luciferase” value was 0.0267 nM.

B2: GOMP001_bsAb_016 (bispecific antibody, human IgG1, kappa, L234A L235A)
heavy 1: QVQLVESGGGVVQPGRSLRLSCAASGFTFSGYGMHWVRYAPGKGLDWVAIIYYNGNNKYYADRVKGRFTISRDNSKNTLYLQMNSLRAEDTAVYYCARGGGYNWFDPWGRGTLVIVSSASTKGPSVFPLAPSSKSTSGGTAALGCLVKDYFPEPVTVSWNSGALTSGVHTFPAVLQSSGLYSLSSVVTVPSSSLGTQTYICNVNHKPSNTKVDKKVEPKSCDKTHTCPPCPAPEAAGGPSVFLFPPKPKDTLMISRTPEVTCVVVDVSHEDPEVKFNWYVDGVEVHNAKTKPREEQYNSTYRVVSVLTVLHQDWLNGKEYKCKVSNKALPAPIEKTISKAKGQPRRPRVYTLPPSREEMTKNQVSLVCLVKGFYPSDIAVEWESNGQPENNYKTTPPVLDSDGSFFLYSVLTVDKSRWQQGNVFSCSVMHEALHNHYTQKSLSLSPG
light 1: not shown
heavy 2: QVQLVQSGAEVKKPGASVKVSCKASGYTFTSHWMHWVRYAPGQGLEWIGEFNPSNGRTNYNEKFKSKATMTVDTSTNTAYMELSSLRSEDTAVYYCASRDYDYDGRYFDYWGRGTLVTVSSASTKGPSVFPLAPSSKSTSGGTAALGCLVKDYFPEPVTVSWNSGALTSGVHTFPAVLQSSGLYSLSSVVTVPSSSLGTQTYICNVNHKPSNTKVDKKVEPKSCDKTHTCPPCPAPEAAGGPSVFLFPPKPKDTLMISRTPEVTCVVVDVSHEDPEVKFNWYVDGVEVHNAKTKPREEQYNSTYRVVSVLTVLHQDWLNGKEYKCKVSNKALPAPIEKTISKAKGQPRRPRVYTLPPSREEMTKNQVSLVCLVKGFYPSDIAVEWESNGQPENNYKTTPPVLDSDGSFFLYSVLTVDKSRWQQGNVFSCSVMHEALHNHYTQKSLSLSPG
light 2: DIQMTQSPSSLSASVGDRVTITCSASSSVTYMYWYQRKPGDAPKLLIYDTSNLASGVPSRFSGSGSGTDYTFTISSLQPEDIATYYCQQWSSHIFTFGQGTKVEIKRTVAAPSVFIFPPSDEQLKSGTASVVCLLNNFYPREAKVQWKVDNALQSGNSQESVTEQDSKDSTYSLSSTLTLSKADYEKHKVYACEVTHQGLSSPVTKSFNRGEC
In the case of B2, the “EC50 CHO-K1 EGFR Low (nM); T cell activation bioassay, luciferase” value came to 0.0531 nM and the “EC50 CHO-K1 EGFR Med (nM); T cell activation bioassay, luciferase” value was found to be 0.00316 nM.

The values are drawn from US20230295310A1 (ABCELLERA BIOLOGICS, published 2023).
